Among the data in patent US20050014220A1 are rate of change in absorbance of the chromogenic substrate S2238 values, retold here.

The test addresses bovine thrombin (bovine) (UniProt P00735). Kind of test: cell-based or functional assay.

Take “mutated murine thrombomodulin lacking the N-terminal lectin-like domain, expressed on COS cells (from UniProt P15306 17-577) (receptor)”: the rate of change in absorbance of the chromogenic substrate S2238 at 405 nm (thrombin-dependent activation of protein C on COS cells) stood at 0.23 units/min. The figure for “wild-type murine thrombomodulin expressed on COS cells (from UniProt P15306 17-577) (receptor)” is 0.21 units/min.
